Measured values reported in US20060265769A1 (BETH ISRAEL DEACONESS MEDICAL CENTER, published 2006).

T1: SHP-2 (UniProt P35235 2-593)
T1 sequence (looked up): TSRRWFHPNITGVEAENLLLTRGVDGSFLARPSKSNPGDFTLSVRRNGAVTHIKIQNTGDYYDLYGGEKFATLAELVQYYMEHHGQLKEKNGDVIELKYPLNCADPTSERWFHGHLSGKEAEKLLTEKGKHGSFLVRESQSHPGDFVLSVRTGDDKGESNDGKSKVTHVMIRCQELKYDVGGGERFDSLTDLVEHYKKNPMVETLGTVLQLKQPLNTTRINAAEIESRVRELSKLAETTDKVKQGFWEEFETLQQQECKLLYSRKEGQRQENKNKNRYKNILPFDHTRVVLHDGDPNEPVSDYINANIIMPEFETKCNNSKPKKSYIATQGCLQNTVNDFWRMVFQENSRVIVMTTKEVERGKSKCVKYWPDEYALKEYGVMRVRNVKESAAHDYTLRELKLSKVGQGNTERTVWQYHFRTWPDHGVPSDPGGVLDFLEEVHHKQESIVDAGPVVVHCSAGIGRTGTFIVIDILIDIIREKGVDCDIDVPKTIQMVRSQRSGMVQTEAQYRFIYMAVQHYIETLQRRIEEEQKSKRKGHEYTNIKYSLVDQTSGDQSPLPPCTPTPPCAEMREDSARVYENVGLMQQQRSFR

B1: Gab2HA (other, not shown: small tags and cut ends)
chain: MSGGGGDDVVCTGWLRKSPPEKKLRRYAWKKRWFILRSGRMSGDPDVLEYYKNEHSKKPLRIINLNLCEQVDAGLTFNKKELQDSFVFDIKTSERTFYLVAETEADMNKWVQSICQICGFNQAEESTDSLRNLSSASHGPRSSPAEFSSSQHLLRERKSSAPSHSSQPTLFTFEPPVSSHMQPTLSTSAPQEYLYLHQCISRRTENARSASFSQGTRQKSDTAVQKLAQSNGHCINGVGGQVHGFYSLPKPSRHNTEFKDSTYDLPRSLASHGHTKSSLTGSETDNEDVYTFKMPSNTLCRELGDLLVDNMDVPTTPLSAYQIPRTFTLDKNHNAMTVATPGDSAIAPPPRPPKPSQAETSQWGSIQQRPPISENSRSVAATIPRRNTLPAMDNSRLHRASSCETYEYPARGSGESASWSAEPPGKTAVGRSNSASSDDNYVPMNPGSSTLLAMERPGDNSQSVYIPMSPGPHHFDPLGYPSTALPIHRGPSRGSEIQPPPVNRNLKPDRKAKPTPLDLRNNTVIDELPFKSPVTKSWSRINSHTFNSSSSQYCRPISTQSITSTDSGDSEENYVPMQNPVSASPVPSGTNSPAPKKSTGSVDYLALDFQPGSPSPHRKPSTSSVTSDEKVDYVQVDKEKTQALQNTMQEWTDVRQSSEPSKGAKL
modifications: tyrosyl phosphorylated upon IL-3 stimulation

Columns and labels:
[1] = biological target: B1; test: co-immunoprecipitation and immunoblotting, BaF3 cells
[2] = biological target: T2, Gab2 (mouse, UniProt Q9Z1S8 1-665, tyrosyl phosphorylated upon stimulation (Y604 and Y633 said to be highly phosphorylated)); test: as above
T2 construct: Scaffolding protein; Endogenous protein in lysates of BaF3, BAC1.2F5 and P210BCR-ABL BaF3 cells; also called p97; p97/Gab2

[3] = biological target: T1, SHP-2; test: cell-based or functional assay

Row | Binder | binding result [1] | binding result [2] | basal c-fos luciferase activity in BaF3 cells [3] [fold]
1 | Crk-L (other, UniProt P47941 1-303, looked up) MSSARFDSSDRSAWYMGPVTRQEAQTRLQGQRHGMFLVRDSSTCPGDYVLSVSENSRVSHYIINSLPNRRFKIGDQEFDHLPALLEFYKIHYLDTTTLIEPAPRYPSPPVGSVSAPNLPTAEENLEYVRTLYDFPGNDAEDLPFKKGELLVIIEKPEEQWWSARNKDGRVGMIPVPYVEKLVRSSPHGKHGNRNSNSYGIPEPAHAYAQPQTTTPLPTVASTPGAAINPLPSTQNGPVFAKAIQKRVPCAYDKTALALEVGDIVKVTRMNINGQWEGEVNGRKGLFPFTHVKIFDPQNPDDNE | no binding | no binding | 
2 | B1 |  |  | ~2
3 | Crk (other, UniProt Q64010 2-304, looked up) AGNFDSEERSSWYWGRLSRQEAVALLQGQRHGVFLVRDSSTSPGDYVLSVSENSRVSHYIINSSGPRPPVPPSPAQPPPGVSPSRLRIGDQEFDSLPALLEFYKIHYLDTTTLIEPVARSRQGSGVILRQEEAEYVRALFDFNGNDEEDLPFKKGDILRIRDKPEEQWWNAEDSEGKRGMIPVPYVEKYRPASASVSALIGGNQEGSHPQPLGGPEPGPYAQPSVNTPLPNLQNGPIYARVIQKRVPNAYDKTALALEVGELVKVTKINVSGQWEGECNGKRGHFPFTHVRLLDQQNPDEDFS | no binding | no binding | 
4 | Crk-II (other, UniProt Q64010-1 2-304, looked up) AGNFDSEERSSWYWGRLSRQEAVALLQGQRHGVFLVRDSSTSPGDYVLSVSENSRVSHYIINSSGPRPPVPPSPAQPPPGVSPSRLRIGDQEFDSLPALLEFYKIHYLDTTTLIEPVARSRQGSGVILRQEEAEYVRALFDFNGNDEEDLPFKKGDILRIRDKPEEQWWNAEDSEGKRGMIPVPYVEKYRPASASVSALIGGNQEGSHPQPLGGPEPGPYAQPSVNTPLPNLQNGPIYARVIQKRVPNAYDKTALALEVGELVKVTKINVSGQWEGECNGKRGHFPFTHVRLLDQQNPDEDFS | no binding | no binding | 
